Laboratory results taken from paper PMC6061939 (Biochemical and biophysical research communications, 2017).

Columns and labels:
Test in all cases: SEC
[1] = target: Dictyostelium discoideum Mdm12 (residues S2-N202) (Dictyostelium discoideum)
[2] = target: Saccharomyces cerevisiae Mmm1Δ (SMP domain) (Saccharomyces cerevisiae) (UniProt P41800)
[3] = target: T1, Saccharomyces cerevisiae Mmm1Δ (SMP domain) (Saccharomyces cerevisiae, UniProt P41800 194-409)
T1 sequence (looked up): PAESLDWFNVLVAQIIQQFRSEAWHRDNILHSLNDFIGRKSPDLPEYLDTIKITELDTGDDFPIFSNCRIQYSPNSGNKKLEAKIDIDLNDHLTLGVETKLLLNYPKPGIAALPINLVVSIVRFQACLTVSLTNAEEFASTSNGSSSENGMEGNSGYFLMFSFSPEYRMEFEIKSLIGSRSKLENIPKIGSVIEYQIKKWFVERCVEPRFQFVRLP

Dictyostelium discoideum Mdm12 (residues S2-N202) (natural protein)
stoichiometry N [1]: 2

Saccharomyces castellii Mdm12 (residues S2-E244) (natural protein)
stoichiometry N [2]: 1

B1: Saccharomyces cerevisiae Mdm12 (natural protein)
chain: MSFDINWSTLESDNRLNDLIRKHLNSYLQNTQLPSYVSNLRVLDFDLGKVGPAITLKEITDPLDEFYDSIREEADQETEENNDNKEDSEHICPDRTIANHEGPKDDFEAPVVMPSPNDIQFLLEVEYKGDLLVTIGADLVLNYPVEKFMTLPVKLSISDIGLHSLCIVACLSKQLFLSFLCDVSDPALDDNQTVLDPKGPILAATKPLERISIVRSMKIETEIGEQYQGQGSVLRSVGELEQFLFTIFKDFLRKELAWPSWINLDFNDGDE
stoichiometry N [3]: 1
